Twelve molecules from US20260201008A1, “SECRETIN-DERIVED GLP1R SELECTIVE AGONISTS” (GUBRA A/S, priority 2023, published 2026) can be followed below.

Test [1] concerns the target human GLP-1 receptor (hGLP1R) (human, UniProt P43220 24-463). Kind of test: cell-based or functional assay.
Test [2] deals with human secretin receptor (hSCTR) (human, UniProt P47872 23-440). Kind of test: cell-based or functional assay.

Numbered stars: 1 amine (or outer) side, 2 acyl side, 3 side chain; on linkers, the order of the positions; unused ones are H or OH. Square brackets hold non-standard residues; d marks the D form. Side chains are listed from the residue outwards. Ends that are not written are not given here. * marks the point of attachment. C20 diacid = O=C(O)CCCCCCCCCCCCCCCCCCC(=O)*; γGlu = O=C(O)[C@H](CCC(=O)[*:2])N[*:1]; AEEA = NCCOCCOCC(=O)O; Aib = CC(C)(N)C(=O)O

Chain of human secretin receptor (hSCTR) (P47872 23-440): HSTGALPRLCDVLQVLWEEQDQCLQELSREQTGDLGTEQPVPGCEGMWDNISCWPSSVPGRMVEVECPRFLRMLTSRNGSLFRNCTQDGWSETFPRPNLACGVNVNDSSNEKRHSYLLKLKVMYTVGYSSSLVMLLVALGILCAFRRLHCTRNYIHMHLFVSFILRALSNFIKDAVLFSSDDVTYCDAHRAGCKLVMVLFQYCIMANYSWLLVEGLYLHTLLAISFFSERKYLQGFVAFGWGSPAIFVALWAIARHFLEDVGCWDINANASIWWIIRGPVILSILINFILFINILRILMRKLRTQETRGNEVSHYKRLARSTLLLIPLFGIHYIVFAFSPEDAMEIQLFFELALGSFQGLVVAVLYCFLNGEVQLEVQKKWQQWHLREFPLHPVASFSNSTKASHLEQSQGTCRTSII

Consider H[Aib]EGTFTSDVSVLK([AEEA-AEEA-γGlu-C20 diacid])EFAAAQRFLEHLV-NH2 [SEQ ID NO: 29], for which the “pEC50 hGLPR1” value in test [1] was 10 -log M. The “pEC50 hSCTR” value in test [2] was 6.1 -log M.
The like results for H[Aib]EGTFTSDVSRLK([AEEA-AEEA-γGlu-C20 diacid])ETAAAQRFLEHLV-NH2 [SEQ ID NO: 23] were, in that order, 10.7 -log M and 6.8 -log M.
The like results for H[Aib]EGTFTSDVSRLK([AEEA-AEEA-γGlu-C20 diacid])EEAAEQRFLEHLV-NH2 [SEQ ID NO: 22] were, in that order, 10.7 -log M and 6.4 -log M.
On to H[Aib]EGTFTSDVSRLK([AEEA-AEEA-γGlu-C20 diacid])ELAAQQRFLEHLV-NH2 [SEQ ID NO: 3], for which, in test [1], the “pEC50 hGLPR1” value is 10.8 -log M. In test [2], the “pEC50 hSCTR” value was 7.1 -log M.
For the molecule H[Aib]EGTFTSDVSRLK([AEEA-AEEA-γGlu-C20 diacid])ETAAQQRFLEHLV-NH2 [SEQ ID NO: 21], the “pEC50 hGLPR1” value in test [1] is 10.9 -log M. Further, the “pEC50 hSCTR” value in test [2] was 6.7 -log M.
Consider H[Aib]EGTFTSDVSRLK([AEEA-AEEA-γGlu-C20 diacid])ETAATQRFLEHLV-NH2 [SEQ ID NO: 26], for which, in test [1], the “pEC50 hGLPR1” value is 10.9 -log M. In addition, the “pEC50 hSCTR” value in test [2] is 7.2 -log M.
In the case of H[Aib]EGTFTSDVSYLK([AEEA-AEEA-γGlu-C20 diacid])EEAATQRFLEHLV-NH2 [SEQ ID NO: 30], the “pEC50 hGLPR1” value in test [1] was 10.9 -log M. In test [2], the “pEC50 hSCTR” value is 6.6 -log M.
The like results for H[Aib]EGTFTSDVSFLK([AEEA-AEEA-γGlu-C20 diacid])EFAA[Aib]QRFLEHLV-NH2 [SEQ ID NO: 27] were, in that order, 10 -log M and 5.5 -log M.
The like results for H[Aib]EGTFTSDVSRLK([AEEA-AEEA-γGlu-C20 diacid])EFAAQQRFLEHLV-NH2 [SEQ ID NO: 24] were, in that order, 10.3 -log M and 6.8 -log M.
The like results for H[Aib]EGTFTSDVSVLK([AEEA-AEEA-γGlu-C20 diacid])EEAAAQRFLEHLV-NH2 [SEQ ID NO: 28] were, in that order, 10.7 -log M and 5.9 -log M.

B1: SEQ ID NO: 202 (peptide)
peptide: H[Aib]EGTFTSDYSFLLEGAALQRFIQWLV-NH2
modifications: N-terminus assumed
SMILES: CC[C@H](C)[C@H](NC(=O)[C@H](Cc1ccccc1)NC(=O)[C@H](CCCNC(=N)N)NC(=O)[C@H](CCC(N)=O)NC(=O)[C@H](CC(C)C)NC(=O)[C@H](C)NC(=O)[C@H](C)NC(=O)CNC(=O)[C@H](CCC(=O)O)NC(=O)[C@H](CC(C)C)NC(=O)[C@H](CC(C)C)NC(=O)[C@H](Cc1ccccc1)NC(=O)[C@H](CO)NC(=O)[C@H](Cc1ccc(O)cc1)NC(=O)[C@H](CC(=O)O)NC(=O)[C@H](CO)NC(=O)[C@@H](NC(=O)[C@H](Cc1ccccc1)NC(=O)[C@@H](NC(=O)CNC(=O)[C@H](CCC(=O)O)NC(=O)C(C)(C)NC(=O)[C@@H](N)Cc1c[nH]cn1)[C@@H](C)O)[C@@H](C)O)C(=O)N[C@@H](CCC(N)=O)C(=O)N[C@@H](Cc1c[nH]c2ccccc12)C(=O)N[C@@H](CC(C)C)C(=O)N[C@H](C(N)=O)C(C)C
Regarding B1, the “pEC50 hGLPR1” value in test [1] was 10.4 -log M. Further, the “pEC50 hSCTR” value in test [2] is 7.4 -log M.
As for H[Aib]EGTFTSDVSFLK([AEEA-AEEA-γGlu-C20 diacid])ETAA[Aib]QRFLEHLV-NH2 [SEQ ID NO: 25], the “pEC50 hGLPR1” value in test [1] was 9 -log M. Also, the “pEC50 hSCTR” value in test [2] was 5.1 -log M.
